# Source: PMC5354831
# Biological target: HER3 (human (endogenous in LIM1215)) (UniProt P21860)
# Assay: Collaborative Enzyme Enhanced Reactive-immunoassay (CEER); proximity-mediated immunoassay in a multiplexed array format on LIM1215 cell lysates, done by Prometheus Laboratories; cells control-treated or treated 24h with cetuximab (50 ug/mL), lapatinib (1 uM), gefitinib, cetuximab + trastuzumab (20 ug/mL) or cetuximab + pertuzumab (10 ug/mL); read-out in computed units (CU)
# UniProt P21860, sequence (P21860 20-1342): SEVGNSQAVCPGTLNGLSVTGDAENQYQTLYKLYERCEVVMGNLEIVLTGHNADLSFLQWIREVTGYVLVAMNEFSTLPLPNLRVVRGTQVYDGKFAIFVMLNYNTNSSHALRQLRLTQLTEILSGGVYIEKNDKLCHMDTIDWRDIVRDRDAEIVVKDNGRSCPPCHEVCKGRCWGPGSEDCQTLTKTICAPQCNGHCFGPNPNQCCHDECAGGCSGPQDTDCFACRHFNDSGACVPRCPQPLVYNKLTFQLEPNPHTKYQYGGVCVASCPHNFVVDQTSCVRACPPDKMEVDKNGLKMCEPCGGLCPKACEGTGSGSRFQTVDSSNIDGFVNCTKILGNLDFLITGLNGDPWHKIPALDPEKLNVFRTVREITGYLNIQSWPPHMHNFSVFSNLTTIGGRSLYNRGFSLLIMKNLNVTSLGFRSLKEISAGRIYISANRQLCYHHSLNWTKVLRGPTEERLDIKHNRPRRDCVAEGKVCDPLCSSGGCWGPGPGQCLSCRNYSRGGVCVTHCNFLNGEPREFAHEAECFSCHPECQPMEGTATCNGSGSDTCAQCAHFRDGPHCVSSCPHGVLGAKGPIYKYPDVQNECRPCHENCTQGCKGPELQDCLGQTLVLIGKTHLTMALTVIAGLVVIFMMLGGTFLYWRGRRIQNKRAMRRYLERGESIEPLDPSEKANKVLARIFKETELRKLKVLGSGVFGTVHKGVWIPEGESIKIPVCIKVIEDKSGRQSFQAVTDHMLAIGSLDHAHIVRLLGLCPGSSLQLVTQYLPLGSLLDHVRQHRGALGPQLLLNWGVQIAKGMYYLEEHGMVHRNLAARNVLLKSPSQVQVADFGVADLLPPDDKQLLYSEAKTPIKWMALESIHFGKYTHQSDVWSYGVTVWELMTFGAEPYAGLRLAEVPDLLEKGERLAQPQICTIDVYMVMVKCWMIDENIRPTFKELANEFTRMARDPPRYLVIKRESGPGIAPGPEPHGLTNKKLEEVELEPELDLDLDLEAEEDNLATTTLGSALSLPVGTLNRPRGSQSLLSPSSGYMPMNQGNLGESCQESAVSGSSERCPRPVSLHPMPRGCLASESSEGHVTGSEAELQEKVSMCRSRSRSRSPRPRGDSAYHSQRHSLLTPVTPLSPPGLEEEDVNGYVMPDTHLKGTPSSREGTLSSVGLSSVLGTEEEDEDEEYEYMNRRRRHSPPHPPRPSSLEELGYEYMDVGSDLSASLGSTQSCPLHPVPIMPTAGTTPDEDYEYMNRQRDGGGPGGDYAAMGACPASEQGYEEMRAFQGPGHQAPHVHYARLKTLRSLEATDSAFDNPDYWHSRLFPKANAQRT
# PI3K p85, sequence (P27986 whole entry): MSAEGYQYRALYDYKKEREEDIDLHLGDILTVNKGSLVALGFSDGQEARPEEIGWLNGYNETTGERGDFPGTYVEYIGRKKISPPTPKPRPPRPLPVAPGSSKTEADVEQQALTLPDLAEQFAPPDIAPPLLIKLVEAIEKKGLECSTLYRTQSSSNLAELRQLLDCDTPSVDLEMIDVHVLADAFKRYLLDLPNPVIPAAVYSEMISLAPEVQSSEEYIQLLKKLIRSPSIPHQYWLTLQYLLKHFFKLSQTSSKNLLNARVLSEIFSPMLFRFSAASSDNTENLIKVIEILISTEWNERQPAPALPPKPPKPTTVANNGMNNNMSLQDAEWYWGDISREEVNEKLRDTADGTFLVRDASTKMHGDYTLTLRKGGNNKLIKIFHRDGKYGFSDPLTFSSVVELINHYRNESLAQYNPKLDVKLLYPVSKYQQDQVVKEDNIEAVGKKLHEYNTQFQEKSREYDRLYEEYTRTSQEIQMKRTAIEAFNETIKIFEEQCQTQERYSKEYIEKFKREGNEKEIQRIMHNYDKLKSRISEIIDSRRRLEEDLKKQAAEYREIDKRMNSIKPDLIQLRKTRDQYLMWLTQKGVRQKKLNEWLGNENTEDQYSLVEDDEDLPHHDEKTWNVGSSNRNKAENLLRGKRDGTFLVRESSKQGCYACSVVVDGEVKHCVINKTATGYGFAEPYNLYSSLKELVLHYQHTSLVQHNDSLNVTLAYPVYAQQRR
substance,measurement,value
PI3K p85 (from UniProt P27986 1-724) (natural protein),"fold increase in HER3:PI3K p85 binding, 24h cetuximab against control treatment",5 fold
